Experimental data: the supplement of paper PMC10567573
± gives the standard deviation.

Experiment: protein stability index of a GFP-peptide fusion (GPS, HEK-293T) (PSI 1-6); higher = more stable
[1] = treatment: DMSO, c terminus: a fixed tail appended
[2] = treatment: MLN4924 1 uM, 8 h, c terminus: a fixed tail appended
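Note: 24-mer peptide tiles fused after GFP, lentivirally expressed, FACS-sorted into six equal bins by GFP/DsRed ratio, decoded by Illumina sequencing, PSI is the read-weighted mean bin number.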

Sequence | protein stability index [1] | protein stability index [2] | protein stability index (treatment: DMSO, c terminus: native) | protein stability index (treatment: MLN4924 1 uM, 8 h, c terminus: native)
EPFVLPASSVESTLPVLEASSWKK [FBXO34] | 4.57 ± 0.22 | 4.87 ± 0.2 |  | 
EPGKQERDVYLPAGKWRSYKGELF [MYORG] | 3.17 ± 0.087 | 3.2 ± 0.21 |  | 
EPKNYGSYSTQASAAAATAELLKK [SCAMP3] | 4.84 ± 0.18 | 4.83 ± 0.16 |  | 
EPLEPEVKYVGNMHGNEALGRELM [CPN1] | 4.63 ± 0.088 | 4.82 ± 0.18 |  | 
EPNTLRAPRVRTAFTMEQVRTLEG [VENTX] | 3.98 ± 0.39 | 3.85 ± 0.21 |  | 
EPPPALPPAADAPVTQIGFEAPPL [TRIM55] | 5.24 ± 0.22 | 5.39 ± 0.11 |  | 
EPPPEVWQVLKTHPGDPRFQCSLW [POLD4] | 2.45 ± 0.42 | 2.55 ± 0.31 |  | 
EQCVSFNSHVYNGRTHQWKPLYPD [ADAMTSL2] | 3.26 ± 0.25 | 3.08 ± 0.19 |  | 
EQDAACGFCFFNSVAVAARHAQTI [HDAC6] | 1.99 ± 0.83 | 1.95 ± 0.21 |  | 
EQELLRRQQRLNQLEKPPEKEEDH [FAM107A] | 5.62 ± 0.16 | 5.54 ± 0.12 |  | 
EQEPIGTDLDAVRTPEPLEEFPKR [MYBL2] | 5.57 ± 0.2 | 5.18 ± 0.46 |  | 
EQLERINDALSCEYECRRRMLMKR [FAM98B] | 3.09 ± 0.37 | 3.14 ± 0.33 |  | 
EQPVPPTPATPEDPAPLWGPPPAQ [EMID1] | 4.92 ± 0.38 | 5.32 ± 0.22 |  | 
EQYDLATKRVRQLLDLDPEVECLK [GOLPH3] | 3.96 ± 0.28 | 3.97 ± 0.43 |  | 
ERCFRGSSYPVCVSKVVKGGSSGK [OAS1] | 3.84 ± 0.13 | 4.07 ± 0.12 |  | 
ERHLVEIKQKLGMNLMNELKQNFS [TPD52L1] | 3.04 ± 0.2 | 2.71 ± 0.41 |  | 
ERLDELQDKSESLSDNATAFSNRS [VAMP4] | 5.44 ± 0.24 | 5.34 ± 0.088 |  | 
ERNNIAVRKSRDKAKRRNQEMQQK [CEBPD] | 3.79 ± 0.9 | 3.31 ± 0.37 |  | 
ERRPVAQSTDGARGKRGYSRGLHA [SPSB2] | 4.52 ± 0.11 | 4.58 ± 0.13 |  | 
ERTKSRLVNTSENLSKSRKILRSM [VTI1B] | 3.79 ± 0.21 | 3.87 ± 0.19 |  | 
ESEVYSWGKGARGRLGRRDEDAGL [NEK8] | 4.67 ± 0.19 | 4.66 ± 0.37 |  | 
ESGVDVNSQNEVNGWTCLHWACKR [ANKRD40] | 3.06 ± 0.22 | 3.31 ± 0.46 |  | 
ESPFSRKLDLWSFLDIPRSRLVKY [NET1] | 2.06 ± 0.14 | 2.15 ± 0.21 |  | 

Sequence | protein stability index [1] | protein stability index [2] | protein stability index (treatment: DMSO, c terminus: native) | protein stability index (treatment: MLN4924 1 uM, 8 h, c terminus: native)
ESRMRIESLSSQLSNLQKESRACL [LMNB1] | 3.63 ± 0.34 | 3.94 ± 0.12 |  | 
ESSILGTDIDLQTIDNDIVSMEIF [M1AP] | 3.86 ± 0.34 | 3.74 ± 0.35 |  | 
ETLEGREKAFIAHFQDNLHSVNRD [MED27] | 4.32 ± 0.22 | 4.26 ± 0.2 |  | 
ETVPWFPKKISDLDHCANRVLMYG [TPH1] | 2.38 ± 0.24 | 2.46 ± 0.26 |  | 
EVHSLTLSPPEQAAQPMQPLPESL [PLAGL1] | 4.92 ± 0.26 | 5.02 ± 0.088 |  | 
EVLAQPQGALAPPNCESDSKTGV [DNAAF3] |  |  | 5.34 ± 0.27 | 5.3 ± 0.39
EVLENVFRVNCYPGIDIREDLAQK [HESX1] | 2.46 ± 0.31 | 2.35 ± 0.66 |  | 
EWARALETRDWGGAQFEGEKGRAL [ZSWIM9] | 3.88 ± 0.3 | 3.9 ± 0.31 |  | 
FANEEEAKKFRKAVTDLLGRRQRK [WASL] | 3.15 ± 0.24 | 3.52 ± 0.27 |  | 
FDVETRHVFIGDHSGQVTILKLEQ [WDFY2] | 2.2 ± 0.44 | 2.43 ± 0.33 |  | 
FEKLLQLTSQNIEIKLVSDVTADS [PLD5] | 2.69 ± 0.59 | 2.72 ± 0.37 |  | 
FGFFFGRTPLIKLSPKKTWEGFIG [CDS1] | 2.47 ± 0.48 | 2.18 ± 0.57 |  | 
FGIEIEVTDINDNAPKFQAENLDV [PCDHGA10] | 3.5 ± 0.56 | 3.98 ± 0.38 |  | 
FGVTYLEDYSAEYIIQQGGWGTVF [BCL2L13] | 2.48 ± 0.38 | 2.33 ± 0.26 |  | 
FHCIETLVTTGANVNETDDWGRTA [ANKRD44] | 2.62 ± 0.32 | 3.15 ± 0.36 |  | 
FHLSLFQGWMNLLNMAKKSVDIVS [PLD5] | 2.99 ± 1.5 | 1.73 ± 0.94 |  | 
FICKECGKAYGWCSELIRHRRVHA [ZNF232] | 3.38 ± 0.3 | 3.73 ± 0.33 |  | 
FISQVTVLKYFSHYMEENLMDGGD [PLK2] | 2.46 ± 0.69 | 2.3 ± 0.49 |  | 
FIVGMVGNATLLRIIYQNKCMRNG [EDNRA] | 2.98 ± 0.15 | 2.51 ± 0.68 |  | 
FKPKNEEPYGHLNPKWTKWLQKLC [PI4K2A] | 2.88 ± 0.58 | 2.79 ± 0.54 |  | 
FLCLQYRLRGKLRAEIENLHRTFD [MOG] | 2.41 ± 0.57 | 2.18 ± 0.39 |  | 
FLGETKQETLTNISAVNYDFDEEY [DAPK3] | 4.77 ± 0.35 | 4.84 ± 0.24 |  | 
FLGGVVRMTISLTVILIESTNEIT [CLCN6] | 3.41 ± 0.43 | 3.42 ± 0.19 |  | 

Sequence | protein stability index [1] | protein stability index [2] | protein stability index (treatment: DMSO, c terminus: native) | protein stability index (treatment: MLN4924 1 uM, 8 h, c terminus: native)
FMHENLYFTNRKVNSVCWASLNHL [DCAF4] | 2.69 ± 0.48 | 2.46 ± 0.53 |  | 
FMQTGYNKLCDWWSLGVIMYEMLI [STK38L] | 2.77 ± 0.82 | 2.47 ± 0.64 |  | 
FPLKPMVHRKSCSTGEAGTDGDHN [ZC2HC1C] | 4.53 ± 0.18 | 4.38 ± 0.27 |  | 
FPNWAMALLITLIVVATLPIPVVF [SLC6A17] | 3.43 ± 0.88 | 3.04 ± 0.33 |  | 
FQEYDTDCEVFRQRFRQFQYREAA [ZNF449] | 2.77 ± 0.27 | 3.18 ± 0.23 |  | 
FQKSHNSLQRWEHLKKVASRYQNN [PRIM1] | 2.46 ± 0.42 | 2.9 ± 0.13 |  | 
FSGHFLCTSSWDKNLKIWNVHTGE [WDR88] | 2.71 ± 0.71 | 2.55 ± 0.15 |  | 
FSNTSELAKDFIRRLLVKDPKRRM [DAPK3] | 2.36 ± 0.19 | 2.16 ± 0.44 |  | 
FVLYFLLACWTYGISVPSGLFVPS [CLCN6] | 3.49 ± 0.56 | 3.09 ± 0.14 |  | 
FVNDLTVTQDGRKIYFTDSSSKWQ [APMAP] | 2.8 ± 0.46 | 2.92 ± 0.24 |  | 
FYLVYFKIQASGETPNSLNTTVIP [LYSMD4] | 2.9 ± 0.04 |  |  | 
GAAVGTGSSYPTTTISYLPHAPPF [JUNB] | 3.1 ± 0.29 | 3.35 ± 0.36 |  | 
GAEDGDRAILYPCHGMSSQLVRYS [GALNT9] | 3.09 ± 0.17 | 3.16 ± 0.29 |  | 
GAHFPQVPGGAVRVAAAAGSGPSP [PI4K2A] | 4.53 ± 0.14 | 4.48 ± 0.088 |  | 
GAYQPTVVSSEGRQSRRQSVSRFF [FBF1] | 4.01 ± 0.37 | 4.1 ± 0.32 |  | 
GCRTTHSNQEVLQSCLLVIFATKP [PYCR3] | 2.64 ± 0.68 | 2.65 ± 0.91 |  | 
GDWHSPTLIREKSFGACLREETPR [ELOA2] | 3.61 ± 0.3 | 3.76 ± 0.32 |  | 
GELQESGLALCPEVQDLLEGCELP [SMG5] | 5.17 ± 0.11 | 5.08 ± 0.22 |  | 
GENAGSLTHIEAQNKIRACGERLS [PDLIM7] | 4.57 ± 0.26 | 4.62 ± 0.14 |  | 
GEPQQDCCVKTELLGEETPMAADE [EHMT1] | 5.55 ± 0.25 | 5.53 ± 0.14 |  | 
GFAERRIDKFGFIVGSQGAEGALE [TBC1D10A] | 3.93 ± 0.46 | 3.93 ± 0.19 |  | 
GFSCDGTANTFRVMFKEPIEILPN [BTBD1] | 2.6 ± 0.22 | 2.73 ± 0.31 |  | 
GGATFLLTAKQLIKSIVEASKGCQ [TRIM63] | 2.87 ± 0.7 | 2.86 ± 0.47 |  | 

Sequence | protein stability index [1] | protein stability index [2] | protein stability index (treatment: DMSO, c terminus: native) | protein stability index (treatment: MLN4924 1 uM, 8 h, c terminus: native)
GGGLTGVSGSHFVGVDGVRAFLQT [PCDHGA10] | 2.82 ± 0.29 | 2.83 ± 0.32 |  | 
GGPQRIPAHRFVLAAGSAVFDAMF [BTBD1] | 2.52 ± 0.31 | 2.2 ± 0.56 |  | 
GGRFRCPSCRHEVVLDRHGVYGLQ [TRIM55] | 2.31 ± 0.23 | 2.36 ± 0.6 |  | 
GGYGFGRGRASGFAGSMFGSVALG [KRT71] | 3.05 ± 0.6 | 2.96 ± 0.25 |  | 
GKGFRHSSSLAQHQRKHAGEKPFE [ZNF8] | 4.82 ± 0.21 | 4.69 ± 0.28 |  | 
GKSPDTNYLFMGDYVDRGYYSVET [PPP2CA] | 2.73 ± 0.28 | 2.87 ± 0.17 |  | 
GKTPTVRAALICLTLVLVASVLLQ [CD207] | 3.17 ± 0.16 | 3.11 ± 0.76 |  | 
GKWMKKFPESETKECPFRVNKVCG [SERPINB5] | 3.13 ± 0.32 | 3.47 ± 0.38 |  | 
GLLQDQGSGLSSRFEEPKGPPARQ [CBY2] | 4.89 ± 0.29 | 5.09 ± 0.23 |  | 
GLMVTCGTDRIVKIWDMTPVVGCS [WDFY1] | 2.29 ± 0.21 | 2.18 ± 0.22 |  | 
GLRASTSDGILRGNGTGYLPGRGR [RHOBTB2] | 4.58 ± 0.26 | 4.58 ± 0.2 |  | 
GLVTAALHMVIVAAFTWAFTLFFE [KMT2E] | 1.96 ± 0.3 | 1.83 ± 0.29 |  | 
GMGGIQNEKETMQSLNDRLASYLD [KRT18] | 3.86 ± 0.18 | 3.84 ± 0.23 |  | 
GNCKYKVDCACLKENPECPVLKRS [KMT2E] | 3.41 ± 0.5 | 4.05 ± 0.74 |  | 
GNMFPTIGDVHLAPFTDEQLYMEQ [CARM1] | 3.93 ± 0.27 | 4.12 ± 0.19 |  | 
GNPRALSFVLSSLQLGEGVEFDVL [OAS1] | 2.29 ± 0.22 | 2.12 ± 0.32 |  | 
GPAAAAAPSLEAPKPSGLEPGPAA [KCTD13] | 5.4 ± 0.11 | 5.39 ± 0.29 |  | 
GPDNLVLLNPEKYKAKSRSPGSPV [ADD1] | 4.47 ± 0.25 | 4.63 ± 0.13 |  | 
GPLAQPLTLQVLVAGNPQDTRLRY [ADAMTS4] | 2.49 ± 0.22 | 2.86 ± 0.1 |  | 
GPLDIWAVVKPGNTKEKIAFFASH [FBXO34] | 2.45 ± 0.27 | 2.78 ± 0.21 |  | 
